Laboratory results as given in patent US20220002403A1.

Biological target: human ILT4 haplotype 5 expressed on mouse 3A9 T cells (human) (UniProt Q8N423)
Assay: cell-based or functional assay

human ILT4 haplotype 5 expressed on mouse 3A9 T cells (human), sequence (Q8N423 other isoform, or with tags, fused parts or gaps): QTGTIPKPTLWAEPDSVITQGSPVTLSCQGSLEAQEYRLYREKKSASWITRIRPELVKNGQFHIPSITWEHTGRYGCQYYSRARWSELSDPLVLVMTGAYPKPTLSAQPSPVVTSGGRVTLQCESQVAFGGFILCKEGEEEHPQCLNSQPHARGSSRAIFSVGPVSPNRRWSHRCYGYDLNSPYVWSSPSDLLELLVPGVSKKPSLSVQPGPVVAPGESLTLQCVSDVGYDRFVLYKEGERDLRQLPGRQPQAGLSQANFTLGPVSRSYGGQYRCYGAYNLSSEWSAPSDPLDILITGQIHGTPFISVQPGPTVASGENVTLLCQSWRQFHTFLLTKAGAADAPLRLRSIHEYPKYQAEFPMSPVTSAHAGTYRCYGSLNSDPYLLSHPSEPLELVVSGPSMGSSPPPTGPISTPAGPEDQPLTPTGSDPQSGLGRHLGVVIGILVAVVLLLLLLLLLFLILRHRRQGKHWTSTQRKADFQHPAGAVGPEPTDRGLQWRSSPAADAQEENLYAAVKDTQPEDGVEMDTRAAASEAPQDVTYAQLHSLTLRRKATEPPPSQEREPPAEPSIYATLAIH

EC50 (IL-2 Repression Assay: rescue of IL-2 release from anti-CD3 stimulated ILT4 3A9 T cell transfectants, ELISA): 0.43 µg/mL
B1: 1E1(G4) (antibody, human IgG4 S228P, lambda, V domains shown)
VH: EVQLQQWGAGLLKPSETLSLTCAVYGGSFSGYYWSWIRQPPGKGLEWIGEINHAGSTNYNPSLKSRVTISVDTSKNQFSLKLSSVTAADTAVYYCARLPTRWVTTRYFDLWGRGTLVTVSS
VL: ESVLTQPPSVSGAPGQRVTISCTGSSSNIGAGYDVHWYQQLPGTAPKLLIYGDSNRPSGVPDRFSVSKSGASASLAITGLQAEDEADYYCQSFDNSLSAYVFGGGTQLTVLG
